Test results: patent publication US20240239855A1 (CYTOKI PHARMA, published 2024)
Where two headings read alike, the source gives them in different places.

Columns and labels:
Assay in all cases: cell-based or functional assay
[1] = molecular target: T1, human IL-22 receptor (human IL-22Ra and human IL-10Rb) on cells (human, UniProt Q8N6P7 16-574; Q08334 20-325)
T1 sequence (looked up) 1: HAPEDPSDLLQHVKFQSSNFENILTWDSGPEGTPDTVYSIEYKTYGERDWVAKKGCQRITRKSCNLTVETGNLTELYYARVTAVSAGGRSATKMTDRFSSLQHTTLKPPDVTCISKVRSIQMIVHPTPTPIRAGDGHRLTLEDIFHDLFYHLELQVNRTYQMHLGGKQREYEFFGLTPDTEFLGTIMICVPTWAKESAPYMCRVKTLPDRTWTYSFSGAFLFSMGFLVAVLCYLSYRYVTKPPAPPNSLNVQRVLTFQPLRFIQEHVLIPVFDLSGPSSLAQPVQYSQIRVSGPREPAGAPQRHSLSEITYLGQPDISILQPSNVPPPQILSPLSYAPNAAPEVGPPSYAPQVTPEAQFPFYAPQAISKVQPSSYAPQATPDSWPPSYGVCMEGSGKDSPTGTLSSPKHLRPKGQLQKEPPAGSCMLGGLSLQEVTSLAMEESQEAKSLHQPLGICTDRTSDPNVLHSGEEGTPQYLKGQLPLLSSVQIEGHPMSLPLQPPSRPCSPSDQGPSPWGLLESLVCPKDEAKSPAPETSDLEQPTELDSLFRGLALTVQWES
T1 sequence (looked up) 2: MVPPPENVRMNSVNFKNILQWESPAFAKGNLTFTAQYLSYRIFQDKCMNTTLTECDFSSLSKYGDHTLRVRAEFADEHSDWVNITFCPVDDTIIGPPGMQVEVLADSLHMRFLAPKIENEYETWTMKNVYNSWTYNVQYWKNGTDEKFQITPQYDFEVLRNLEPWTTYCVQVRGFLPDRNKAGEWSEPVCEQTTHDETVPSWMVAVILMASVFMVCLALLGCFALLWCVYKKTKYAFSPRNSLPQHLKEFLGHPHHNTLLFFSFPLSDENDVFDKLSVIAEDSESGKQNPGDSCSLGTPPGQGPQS

[2] = molecular target: T1, human IL-22 receptor (human IL-22Ra and …); remark: listed apart in the source
[3] = molecular target: T1, human IL-22 receptor (human IL-22Ra and …); remark: listed apart in the source
[4] = molecular target: T1, human IL-22 receptor (human IL-22Ra and …); remark: listed apart in the source
[5] = molecular target: T1, human IL-22 receptor (human IL-22Ra and …); remark: listed apart in the source
[6] = molecular target: T1, human IL-22 receptor (human IL-22Ra and …); remark: listed apart in the source

B1: native mature human IL-22 (hIL-22) (ligand)
chain: APISSHCRLDKSNFQQPYITNRTFMLAKEASLADNNTDVRLIGEKLFHGVSMSERCYLMKQVLNFTLEEVLFPQSDRFQPYMQEVVPFLARLSNRLSTCHIEGDDLHIQRNVQKLKDTVKKLGESGEIKAIGELDLLFMSLRNACI
EC50, BHK cell reporter gene assay (STAT3-induced luciferase) [1]: 70 pM
EC50, BHK cell reporter gene assay (STAT3-induced luciferase) [2]: 70 pM
EC50, HepG2 cell assay for pSTAT3 (AlphaScreen SureFire STAT3 p-Tyr705) [3]: 3.88 nM
EC50, BHK cell reporter gene assay (STAT3-induced luciferase) [4]: 70 pM
EC50, BHK cell reporter gene assay (STAT3-induced luciferase), second laboratory [5]: 27 pM
EC50, BHK cell reporter gene assay (STAT3-induced luciferase), second laboratory [6]: 30 pM
